Our source for the binding result and Kd values is PMC4072727, “Selection and Characterization of a DNA Aptamer That Can Discriminate between cJun/cJun and cJun/cFos”.

Series [1] has as its target T1, cJun (cJun/cJun homodimer) (UniProt P05412 1-331, C269S). Description: competition; vs Cy5-labeled AP-1 DNA; EMSA: 100 mM KCl, 4 mM MgCl2, 20 mM Tris pH 7.9, 20 mM HEPES pH 7.9, 10% glycerol, 0.1 mM DTT, 60 ug/ml BSA, 0.06% NP-40, 50 ng poly(dI-dC), on ice; 50 pM 32P-D. Particulars: protein: recombinant; chain copies: 2; hairpin.
Series [2] addresses T1, cJun (cJun/cJun homodimer). Description: EMSA; EMSA: 100 mM KCl, 4 mM MgCl2, 20 mM Tris pH 7.9, 20 mM HEPES pH 7.9, 10% glycerol, 0.1 mM DTT, 60 ug/ml BSA, 0.06% NP-40, 50 ng poly(dI-dC), on ice; 50 pM 32P-D. Particulars: protein: recombinant, chain copies: 2.
In series [3] the target is T1, cJun (cJun/cJun homodimer). Description: DNase I footprinting; broad protection; EMSA: 100 mM KCl, 4 mM MgCl2, 20 mM Tris pH 7.9, 20 mM HEPES pH 7.9, 10% glycerol, 0.1 mM DTT, 60 ug/ml BSA, 0.06% NP-40, 50 ng poly(dI-dC), on ice; 50 pM 32P-D. Particulars: protein: recombinant; chain copies: 2; label: 32P; three stem-loops, nt 13-68.
In series [4] the target is T1, cJun (cJun/cJun homodimer). Description: EMSA; 0.4-6.5 nM; low or sub-nanomolar; EMSA: 100 mM KCl, 4 mM MgCl2, 20 mM Tris pH 7.9, 20 mM HEPES pH 7.9, 10% glycerol, 0.1 mM DTT, 60 ug/ml BSA, 0.06% NP-40, 50 ng poly(dI-dC), on ice; 50 pM 32P-D. Particulars: protein: recombinant; chain copies: 2; label: 5'-FAM or 32P.
The target of series [5] is T2, cJun (cJun/cJun homodimer);cFos (in cJun/cFos heterodimer) (;, UniProt P05412;P01100 1-331;1-380, C269S|C154S). Description: EMSA; 0.4-6.5 nM protein; EMSA: 100 mM KCl, 4 mM MgCl2, 20 mM Tris pH 7.9, 20 mM HEPES pH 7.9, 10% glycerol, 0.1 mM DTT, 60 ug/ml BSA, 0.06% NP-40, 50 ng poly(dI-dC), on ice; 50 pM 32P-D. As to conditions: protein: recombinant;recombinant; tags: ;6His; copies: 1;1; label: 5'-FAM or 32P.

For series [6], the target named is T2, cJun (cJun/cJun homodimer);cFos (in …). Description: EMSA; higher affinity than cJun/cJun; EMSA: 100 mM KCl, 4 mM MgCl2, 20 mM Tris pH 7.9, 20 mM HEPES pH 7.9, 10% glycerol, 0.1 mM DTT, 60 ug/ml BSA, 0.06% NP-40, 50 ng poly(dI-dC), on ice; 50 pM 32P-D. As to conditions: protein: recombinant;recombinant; tags: ;6His; copies: 1;1; label: 32P or 5'-Cy5; blunt.

For GTCCAAATCTCAGAAGAGACACACTCTTCTGAGATTTGGAC (structured_DNA) [mutant AP-1 decoy (hairpin)], in series [1], the binding result was “no binding”.

B1: aptamer-19(12-74) (structured_DNA)
DNA: TACGGCACCGTATAGTCGTACATGAACGAGTGTGAGTGTTAAGCCTTTGGCGACAGGGCTCGG
Turning to B1, the Kd in series [2] (label: 32P, three stem-loops, nt 13-68) came out at 0.5 nM.
With GTCCATGACTCAGAAGAGACACACTCTTCTGAGTCATGGAC (structured_DNA) [AP-1 DNA decoy (hairpin)], the binding result in series [1] is on record as “binds”.

B2: aptamer-19 (structured_DNA)
DNA: GGGAGATCACTTACGGCACCGTATAGTCGTACATGAACGAGTGTGAGTGTTAAGCCTTTGGCGACAGGGCTCGGAACC
Turning to B2, the binding result in series [3] is given as “binds”.

B3: aptamer-16 (structured_DNA)
DNA: GGGAGATCACTTACGGCACCCGGAGGGTCGTTACCCACTGTTTGTTGGTATAAAGCCTGGCGACAGGGCTCGGAACC
With B3, the binding result in series [4] is on record as “binds”; in series [5] it was “no binding”.

B4: aptamer-27 (structured_DNA)
DNA: GGGAGATCACTTACGGCACCAACGTCTCGTTGGTCGTTCCAGCGTTCTAGATGGATTCAGGCGACAGGGCTCGGAACC
With B4, the results for the binding result in series [4] and in series [5] were “binds” and “no binding”, respectively.

B5: aptamer-1 (structured_DNA)
DNA: GGGAGATCACTTACGGCACCAGTCGTCGTTACTGCATTGCTCTATGGAGTATAAGCCCTGCGACAGGGCTCGGAACC
Take B5: the results for the binding result in series [4] and in series [5] were “binds” and “no binding”, respectively.

B6: AP-1 DNA (dsDNA)
DNA 1: AGGTCGTGACTCAGCGG
DNA 2: CCGCTGAGTCACGACCT
As for B6, the binding result in series [6] is listed as “binds”. In addition, the Kd in series [2] (label: 32P or 5'-Cy5, blunt) was roughly 15 nM.
